Measurements as given in patent US6710030B1, “Contortrostain (CN) and methods for its use in preventing metastasis and other conditions” (University of Southern California, priority 1993, dated 2004).

Test system: MDA-MB-435 cells
Assay: Phosphotyrosine immunoblot, MDA-MB-435 cells
Type: cell-based, human
Experimental: Cell culture, preparation and stimulation—T24 cells were maintained in RPMI 1640 medium containing 5% fetal bovine serum, and MDA-MB-435 and 293 cells were maintained in Dulbecco's modified Eagle's medium with 10% serum at 37° C. in 5% CO2. Cells were washed with phosphate-buffered saline (PBS) and starved in the appropriate serum-free medium for 6 h at 37° C. Cells were detached by brief treatment with 0.05% trypsin/0.02% EDTA in PBS and collected by centrifugation, resuspended in soybean trypsin inhibitor (1 mg/ml in serum-free medium), and washed in 2% bovine serum albumin/serum-free medium. Cells were maintained in suspension for 1 h in 2% bovine serum albumin/serum-free medium at 37° C. with end-over-end agitation. Quiescent cells (3×10^6/ml) were treated with disintegrins or other reagents while in suspension, or were allowed to adhere to Matrigel (Becton Dickinson, Bedford, Mass.) diluted 1:100 with serum-free medium during treatment.
Lysate preparation and immunoprecipitation—Suspended and adherent cells were washed twice with cold PBS and lysed in cold lysis buffer (50 mM Tris, pH 8.0, 150 mM NaCl, 1% Nonidet P-40, 0.5% deoxycholate, 0.1% SDS, protease inhibitor cocktail, 1 mM sodium pyrophosphate, 1 mM sodium orthovanadate, 50 mM sodium fluoride). After 10-15 min incubation on ice, insoluble material was removed by centrifugation at 14,000 RPM in a microcentrifuge for 15 min. Supernatants were collected and total protein concentrations standardized by the BCA protein assay (Pierce, Rockford, Ill.). Immunoprecipitation was carried out by incubating whole cell lysates (200 μg total protein) with 1.25 μg anti-FAK or anti-CAS mAb 4-6 h at 4° C. followed by 20 μl protein G-agarose overnight at 4° C. Immunoprecipitates were washed 4 times in lysis buffer without inhibitors and dissociated by adding SDS-PAGE sample buffer and boiling 5 min. Whole cell lysates (30 μg total protein) or immunoprecipitates were resolved by 7.5% SDS-polyacrylamide gel electrophoresis and transferred to nitrocellulose membranes.
Immunoblotting—Membranes were blocked with 5% nonfat milk/Tris-buffered saline/0.1% Tween 20 (blocking buffer) 1 h at room temperature or overnight at 4° C. Primary antibody incubations were performed in blocking buffer for 1 h at room temperature. After washing in Tris-buffered saline/0.1% Tween 20, membranes were incubated with horseradish peroxidase-conjugated secondary antibody in blocking buffer 1 h at room temperature. Membranes were washed extensively. Inimunoblots were developed using Super Signar West Pico Chemiluminescent Substrate from Pierce. Densitometry was performed using UN-SCAN-IT™, software (Silk Scientific, Orem, Utah))

Row | Molecule | stimulation of tyrosine phosphorylation (10 μg/ml, data not shown) | effect on contortrostatin (10 nM)-induced tyrosine phosphorylation (1 μM, added simultaneously, 10 min) | effect alone on tyrosine phosphorylation (concentrations up to 1 μM)
1 | monomeric vitronectin: soluble monomeric vitronectin (protein, UniProt P04004 20-478, looked up) Vitronectin: DQESCKGRCTEGFNVDKKCQCDELCSYYQSCCTDYTAECKPQVTRGDVFTMPEDEYTVYDDGEEKNNATVHEQVGGPSLTSDLQAQSKGNPEQTPVLKPEEEAPAPEVGASKPEGIDSRPETLHPGRPQPPAEEELCSGKPFDAFTDLKNGSLFAFRGQYCYELDEKAVRPGYPKLIRDVWGIEGPIDAAFTRINCQGKTYLFKGSQYWRFEDGVLDPDYPRNISDGFDGIPDNVDAALALPAHSYSGRERVYFFKGKQYWEYQFQHQPSQEECEGSSLSAVFEHFAMMQRDSWEDIFELLFWGRTSAGTRQPQFISRDWHGVPGQVDAAMAGRIYISGMAPRPSLAKKQRFRHRNRKGYRSQRGHSRGRNQNSRRPSRATWLSLFSSEESNLGANNYDDYRMDWLVPATCEPIQSVFFFSGDKYYRVNLRTRRVDTVDPPYPRSIAQYWLGCPAPGHL | failed to stimulate tyrosine phosphorylation | – | –
2 | flavoridin: monomeric disintegrin obtained from Sigma (protein) GEECDCGSPSNPCCDAATCKLRPGAQCADGLCCDQCRFKKKRTICRIARGDFPDDRCTGLSNDCPRWNDL | – | completely abrogated | no effect on tyrosine phosphorylation
